Reference: patent US20150086622A1, “GROWTH ENHANCEMENT OF INFANTS” (NUTRINIA LTD., priority 2012, published 2015)
Entries after “also recorded” stand apart in the source; their conditions may differ.

Tests used:
preterm infants [1] = settings: oral, 4 to 28 days of age, 4 U/kg/day; cited from earlier work
low birth weight infants [2] = experiment: Clinical studies: safety / side effects of insulin enriched formula; assay type: in vivo, human
Protocol: Phase I, multi center, non-randomized, open label, single group study to assess the safety of insulin enriched formula on low birth weight infants was conducted in Rabin Medical Center and Laniado Hospital, Israel. The possible effect of the insulin enriched formula on growth of low birth weight infants, born on term (at least 34 weeks of gestation) was also examined in this study. Parents of eligible infants, who met the study criteria, were invited to participate in the study following signing on Informed Consent Form (ICF). From study day 1, the infants received the insulin enriched infant formula ([…], Israel). They were fed with the formula for the first 4 months without the addition of complementary feed. The infants' gender, family origin, gestational age at birth, maternal medications, maternal age, chronic diseases in the family and the infant's condition upon enrollment were recorded. […] At study day 1 and 2, and at 1, 4, 8, 12, 16 and 24 weeks the parents of the infant were asked to come to the neonatal ward for follow up examinations. During the study, the infant's weight, length, head circumference, glucose blood levels, blood count, blood fat, blood chemistry, blood amino acids, insulin antibodies, and serum levels were recorder, as well as food consumption, vomiting, regurgitation and stools frequency were measured and assessed. Infants were to be withdrawn from the study if any serious adverse event or any deterioration in the infant clinical condition had occurred. They were followed up on possible side effects and efficacy measures until 6 months of age. […] A multicenter, double blind, randomized study for studying the effect of the insulin enriched infant formula on the growth of low weight infants was planned to take place in Israel in 2005 (headed by Prof Sirota, Schneider Hospital). Due to low recruitment rate (only 8 premature infants), the study was terminated.

newborn miniature pigs = settings: oral administration of 85 mU/ml; cited from earlier work
preterm infants [3] = experiment: Randomized placebo controlled study: gastrointestinal maturation (days to complete enteral feeding); assay type: in vivo, human; settings: all infants; control 7.9; P-value=0.2085
Protocol: A Multi-center, two arms, randomized, double-blinded placebo controlled study was conducted to evaluate the effect of insulin-enriched infant formula on preterm infants. In this study, the population of infants included also babies having extremely low birth weight (inclusion criteria included babies weighing over 750 grams). The insulin was given at a concentration range which is mimicking colostrums concentration (at 400 μU/ml. The study primary goal was to determine whether insulin supplement to the basic preterm oral formula enhances gastrointestinal maturation. The gastrointestinal maturation was evaluated by the ability of the premature infants to achieve complete enteral feeds (150-160 ml/kg/day). The infants were hospitalized in the neonatal hospital ward in the same manner as preterm infants whose parents elected not to participate in the study. The infants were randomly assigned to one of two treatment groups: the study product-InsuMealTM as a test group and Placebo supplement as a control group. The parents, the medical team treating the infants and the study monitor were blinded to the treatment arm. From study day 1, the infants in the test group received the InsuMealTM additive mixed with the ready to feed (RTF) preterm […] formula and the control group received a placebo supplement mixed with the same RTF preterm […] formula. […]

preterm infants [4] = experiment: Randomized placebo controlled study: number of hospitalization days to discharge; assay type: in vivo, human
Protocol: A Multi-center, two arms, randomized, double-blinded placebo controlled study was conducted to evaluate the effect of insulin-enriched infant formula on preterm infants. In this study, the population of infants included also babies having extremely low birth weight (inclusion criteria included babies weighing over 750 grams). The insulin was given at a concentration range which is mimicking colostrums concentration (at 400 μU/ml. The study primary goal was to determine whether insulin supplement to the basic preterm oral formula enhances gastrointestinal maturation. The gastrointestinal maturation was evaluated by the ability of the premature infants to achieve complete enteral feeds (150-160 ml/kg/day). The infants were hospitalized in the neonatal hospital ward in the same manner as preterm infants whose parents elected not to participate in the study. The infants were randomly assigned to one of two treatment groups: the study product-InsuMealTM as a test group and Placebo supplement as a control group. […] From study day 1, the infants in the test group received the InsuMealTM additive mixed with the ready to feed (RTF) preterm […] formula and the control group received a placebo supplement mixed with the same RTF preterm […] formula. Infant maturation and growth was further assessed by the number of hospitalization days required until the preterm infant could be discharged.

low birth weight infants [5] = experiment: Phase I open label single group clinical study of insulin enriched formula: growth in weight, length, head circumference; assay type: in vivo, human; settings: at 6 months; CDC growth tables
Protocol: The effect of insulin enriched formula on low birth weight full term infant was examined. Inclusion criteria for participating in the study included: healthy infants 34-42 weeks gestation (“term born infants”); birth weight above 1,650 g, typically between 1750 gram and 2500 gram; no major congenital malformation or any other illness sign; chronological age under 240 hours; mother is not willing to breastfeed the baby during the study period and signed an informed consent. Infant with a high index of suspect for infection before enrolment, maternal diabetes, and medications given until day 1 of the study were excluded. Observed results regarding weight, length, and head circumference were compared to expected values which were obtained from the CDC growth reference tables (ibid) according to the infants' gender, gestational age and percentile of birth weight (BW). Interpolation or extrapolation was used to determine the percentile and the expected gain of each infant. The expected values are specific to the percentile measure at birth. The percentile of each BW was evaluated according to the gender, gestational age and multiplicity (singleton or twin) using published tables for Israel (Dolberg S. et al., IMAJ, 7, 2005, 311-314). No such data were available with respect to the percentiles of length and of head circumference. It was therefore assumed that the BW percentile of each infant is applicable to each of the other two growth measures. […] The infants' gender, family origin, gestational age at birth, maternal medications, maternal age, chronic diseases in the family and the infant's condition upon enrollment were recorded. […] During the study, the infant's weight, length, head circumference, glucose blood levels, blood count, blood fat, blood chemistry, blood amino acids, insulin antibodies, and serum levels were recorder, as well as food consumption, vomiting, regurgitation and stools frequency were measured and assessed. The possible effect of the insulin enriched formula on growth was evaluated with respect to gain in weight, length, and head circumference. […]

insulin: polypeptide hormone; human insulin administered orally to infants, within infant formula
Hypoglycaemia or other adverse effects (preterm infants [1]): without inducing hypoglycaemia or other adverse effects
Lactase activity (preterm infants [1]): increased lactase activity
Adverse events (low birth weight infants [2]; follow up to 6 months): No deleterious effects; also recorded: no adverse events were observed
Anti-insulin antibodies (low birth weight infants [2]; human, in vivo): did not stimulate the production of anti-insulin antibodies
Hypoglycemia (low birth weight infants [2]; human, in vivo): did not cause hypoglycemia
Intestine ileal mass and lactase activity (newborn miniature pigs): increased
Number of days to achieve complete enteral feeding (>=150 ml/Kg/day), Mean (preterm infants [3]): 6.4 days
Number of days to discharge, Mean (preterm infants [4]; all infants, control 33.6, P-value=0.2192): 28.8 days
Number of days to discharge, Mean (preterm infants [4]; infant birth weight < 1300 gr, control 47.0, P value=0.0447): 35.8 days
Effect on head circumference relative to the expected growth (low birth weight infants [5]): 17.6%
Effect on length relative to the expected growth (low birth weight infants [5]): 8.1%
Effect on weight relative to the expected growth (low birth weight infants [5]): 18.1%
